# B1: GNG4, P50150 (peptide)
# chain: REKKFFCTIL
# B2: GOLT1A, Q6ZVE7 (peptide)
# chain: RRLQGTSSMV
# B3: PKN2, Q16513 (peptide)
# chain: RDFDYIADWC
# B4: ADGRA1, Q86SQ6 (peptide)
# chain: TGPWKNETTV
# B5: IGF1R, P08069 (peptide)
# chain: ALPLPQSSTC
# B6: TNRC6A, Q8NDV7 (peptide)
# chain: DHLGGGGESM
# Molecular target: T1, SNTB1, Q13884
# T1 sequence (Q13884 107-205, limits assumed, looked up): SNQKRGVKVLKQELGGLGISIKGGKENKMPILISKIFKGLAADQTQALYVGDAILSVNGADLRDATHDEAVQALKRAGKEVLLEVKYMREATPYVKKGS
# Test: holdup assay
# Parameters: key: below the threshold = too weak to quantify, mostly under pKd 3.1 to 4
# Conditions: plain residues with an end cap or a label only (N-terminal biotin on a linker: ado-ado)
row,Binder,pKd
1,B1,4.43
2,B2,below the threshold
3,B3,below the threshold
4,B4,4.67
5,B5,below the threshold
6,B6,below the threshold

# Molecular target: T2, DLG3_3, Q92796
# T2 sequence (Q92796 374-475, limits assumed, looked up): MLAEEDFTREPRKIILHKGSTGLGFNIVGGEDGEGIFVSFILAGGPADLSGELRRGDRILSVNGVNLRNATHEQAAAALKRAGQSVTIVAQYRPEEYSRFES
# Test: holdup assay
# Parameters: key: below the threshold = too weak to quantify, mostly under pKd 3.1 to 4
# Conditions: plain residues with an end cap or a label only (N-terminal biotin on a linker: ado-ado)
row,Binder,pKd
1,B1,4.38
2,B2,below the threshold
3,B3,below the threshold
4,B4,4.48
5,B5,below the threshold
6,B6,below the threshold

# Molecular target: TJP2_1, Q9UDY2
# Test: holdup assay
# Parameters: key: below the threshold = too weak to quantify, mostly under pKd 3.1 to 4
# Conditions: plain residues with an end cap or a label only (N-terminal biotin on a linker: ado-ado)
# TJP2_1, Q9UDY2, sequence (Q9UDY2 24-128): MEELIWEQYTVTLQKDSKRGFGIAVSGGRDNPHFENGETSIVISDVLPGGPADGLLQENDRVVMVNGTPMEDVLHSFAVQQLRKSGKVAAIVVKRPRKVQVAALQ
row,Binder,pKd
1,B1,4.93
2,B2,3.59
3,B3,4.48
4,B4,below the threshold
5,B5,below the threshold
6,B6,below the threshold

# Molecular target: T3, LIN7A, O14910
# T3 sequence (O14910 103-200, limits assumed, looked up): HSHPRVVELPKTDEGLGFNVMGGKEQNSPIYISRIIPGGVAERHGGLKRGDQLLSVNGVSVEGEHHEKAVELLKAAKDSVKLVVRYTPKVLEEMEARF
# Test: holdup assay
# Parameters: key: below the threshold = too weak to quantify, mostly under pKd 3.1 to 4
# Conditions: plain residues with an end cap or a label only (N-terminal biotin on a linker: ado-ado)
row,Binder,pKd
1,B1,3.6
2,B2,below the threshold
3,B3,below the threshold
4,B4,3.86
5,B5,below the threshold
6,B6,below the threshold

# Molecular target: MAGI1_1, Q96QZ7
# Test: holdup assay
# Parameters: key: below the threshold = too weak to quantify, mostly under pKd 3.1 to 4
# Conditions: plain residues with an end cap or a label only (N-terminal biotin on a linker: ado-ado)
# MAGI1_1, Q96QZ7, sequence (Q96QZ7 1-106): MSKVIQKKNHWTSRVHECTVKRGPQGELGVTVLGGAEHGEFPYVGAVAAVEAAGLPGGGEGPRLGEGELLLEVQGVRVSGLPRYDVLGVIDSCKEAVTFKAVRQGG
row,Binder,pKd
1,B1,below the threshold
2,B2,below the threshold
3,B3,below the threshold
4,B4,below the threshold
5,B5,below the threshold
6,B6,below the threshold

# Molecular target: NHERF4_1, Q86UT5-2
# Test: holdup assay
# Parameters: key: below the threshold = too weak to quantify, mostly under pKd 3.1 to 4
# Conditions: plain residues with an end cap or a label only (N-terminal biotin on a linker: ado-ado)
# NHERF4_1, Q86UT5-2, sequence (Q86UT5 other isoform, or with tags, fused parts or gaps): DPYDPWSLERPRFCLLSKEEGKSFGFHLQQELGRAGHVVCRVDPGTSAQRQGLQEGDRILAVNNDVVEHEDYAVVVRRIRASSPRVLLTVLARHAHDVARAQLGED
row,Binder,pKd
1,B1,4.56
2,B2,below the threshold
3,B3,4.34
4,B4,below the threshold
5,B5,3.88
6,B6,below the threshold

# Molecular target: T4, GRIP1_7, Q9Y3R0
# T4 sequence (Q9Y3R0 999-1096, limits assumed, looked up): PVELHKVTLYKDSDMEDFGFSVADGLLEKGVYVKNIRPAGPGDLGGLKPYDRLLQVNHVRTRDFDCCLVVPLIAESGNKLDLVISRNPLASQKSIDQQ
# Test: holdup assay
# Parameters: key: below the threshold = too weak to quantify, mostly under pKd 3.1 to 4
# Conditions: plain residues with an end cap or a label only (N-terminal biotin on a linker: ado-ado)
row,Binder,pKd
1,B1,below the threshold
2,B2,below the threshold
3,B3,below the threshold
4,B4,below the threshold
5,B5,below the threshold
6,B6,below the threshold

# Molecular target: T5, TJP3_3, O95049
# T5 sequence (O95049 375-456, limits assumed, looked up): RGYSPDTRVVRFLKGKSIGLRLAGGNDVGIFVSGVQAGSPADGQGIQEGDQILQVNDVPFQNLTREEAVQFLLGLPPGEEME
# Test: holdup assay
# Parameters: key: below the threshold = too weak to quantify, mostly under pKd 3.1 to 4
# Conditions: plain residues with an end cap or a label only (N-terminal biotin on a linker: ado-ado)
row,Binder,pKd
1,B1,below the threshold
2,B2,below the threshold
3,B3,4.57
4,B4,below the threshold
5,B5,below the threshold
6,B6,below the threshold

# Molecular target: NOS1, P29475
# Test: holdup assay
# Parameters: key: below the threshold = too weak to quantify, mostly under pKd 3.1 to 4
# Conditions: plain residues with an end cap or a label only (N-terminal biotin on a linker: ado-ado)
# NOS1, P29475, sequence (P29475 9-101): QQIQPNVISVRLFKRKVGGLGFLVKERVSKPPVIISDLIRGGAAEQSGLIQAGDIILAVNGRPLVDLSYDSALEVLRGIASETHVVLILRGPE
row,Binder,pKd
1,B1,3.81
2,B2,3.77
3,B3,4.12
4,B4,below the threshold
5,B5,below the threshold
6,B6,below the threshold

# Molecular target: PICK1, Q9NRD5
# Test: holdup assay
# Parameters: key: below the threshold = too weak to quantify, mostly under pKd 3.1 to 4
# Conditions: plain residues with an end cap or a label only (N-terminal biotin on a linker: ado-ado)
# PICK1, Q9NRD5, sequence (Q9NRD5 17-115): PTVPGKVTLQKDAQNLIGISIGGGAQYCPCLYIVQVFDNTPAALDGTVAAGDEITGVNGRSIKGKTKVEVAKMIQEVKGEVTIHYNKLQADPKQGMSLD
row,Binder,pKd
1,B1,below the threshold
2,B2,4.03
3,B3,4.06
4,B4,below the threshold
5,B5,below the threshold
6,B6,below the threshold

# Molecular target: GRID2IP_1, A4D2P6
# Test: holdup assay
# Parameters: key: below the threshold = too weak to quantify, mostly under pKd 3.1 to 4
# Conditions: plain residues with an end cap or a label only (N-terminal biotin on a linker: ado-ado)
# GRID2IP_1, A4D2P6, sequence (A4D2P6 1-87): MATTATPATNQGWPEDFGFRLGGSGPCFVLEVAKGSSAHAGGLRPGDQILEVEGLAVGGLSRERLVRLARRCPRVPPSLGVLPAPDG
row,Binder,pKd
1,B1,below the threshold
2,B2,below the threshold
3,B3,below the threshold
4,B4,below the threshold
5,B5,below the threshold
6,B6,below the threshold

# Molecular target: T6, LNX2_2, Q8N448
# T6 sequence (Q8N448 334-432, limits assumed, looked up): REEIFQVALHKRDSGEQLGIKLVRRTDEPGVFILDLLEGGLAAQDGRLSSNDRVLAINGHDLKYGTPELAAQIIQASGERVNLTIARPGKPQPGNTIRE
# Test: holdup assay
# Parameters: key: below the threshold = too weak to quantify, mostly under pKd 3.1 to 4
# Conditions: plain residues with an end cap or a label only (N-terminal biotin on a linker: ado-ado)
row,Binder,pKd
1,B1,4.06
2,B2,3.78
3,B3,4.59
4,B4,4.93
5,B5,3.55
6,B6,below the threshold

# Molecular target: Inadl_9, Q8NI35
# Test: holdup assay
# Parameters: key: below the threshold = too weak to quantify, mostly under pKd 3.1 to 4
# Conditions: plain residues with an end cap or a label only (N-terminal biotin on a linker: ado-ado)
# Inadl_9, Q8NI35, sequence (Q8NI35 1530-1615): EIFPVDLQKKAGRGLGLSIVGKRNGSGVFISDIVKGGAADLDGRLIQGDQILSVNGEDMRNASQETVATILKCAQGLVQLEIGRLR
row,Binder,pKd
1,B1,below the threshold
2,B2,below the threshold
3,B3,4.34
4,B4,below the threshold
5,B5,below the threshold
6,B6,below the threshold

# Molecular target: DLG4_1, P78352
# Test: holdup assay
# Parameters: key: below the threshold = too weak to quantify, mostly under pKd 3.1 to 4
# Conditions: plain residues with an end cap or a label only (N-terminal biotin on a linker: ado-ado)
# DLG4_1, P78352, sequence (P78352 62-152): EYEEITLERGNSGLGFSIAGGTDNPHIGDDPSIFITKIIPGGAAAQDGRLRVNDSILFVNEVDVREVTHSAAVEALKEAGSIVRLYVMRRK
row,Binder,pKd
1,B1,4.06
2,B2,4.04
3,B3,below the threshold
4,B4,4.99
5,B5,below the threshold
6,B6,below the threshold

# Molecular target: NHERF2_2, Q15599
# Test: holdup assay
# Parameters: key: below the threshold = too weak to quantify, mostly under pKd 3.1 to 4
# Conditions: plain residues with an end cap or a label only (N-terminal biotin on a linker: ado-ado)
# NHERF2_2, Q15599, sequence (Q15599 142-238): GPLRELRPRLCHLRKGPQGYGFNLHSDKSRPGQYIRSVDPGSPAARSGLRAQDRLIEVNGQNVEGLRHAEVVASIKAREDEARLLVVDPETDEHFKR
row,Binder,pKd
1,B1,4.52
2,B2,below the threshold
3,B3,below the threshold
4,B4,below the threshold
5,B5,below the threshold
6,B6,below the threshold

# Molecular target: T7, APBA1_2, Q02410
# T7 sequence (Q02410 742-832, limits assumed, looked up): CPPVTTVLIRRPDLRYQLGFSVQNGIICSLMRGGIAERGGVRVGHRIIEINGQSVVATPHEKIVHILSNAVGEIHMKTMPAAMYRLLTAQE
# Test: holdup assay
# Parameters: key: below the threshold = too weak to quantify, mostly under pKd 3.1 to 4
# Conditions: plain residues with an end cap or a label only (N-terminal biotin on a linker: ado-ado)
row,Binder,pKd
1,B1,4.71
2,B2,3.71
3,B3,3.82
4,B4,below the threshold
5,B5,below the threshold
6,B6,below the threshold

# Molecular target: T8, ARHGAP21, Q5T5U3
# T8 sequence (Q5T5U3 45-169, limits assumed, looked up): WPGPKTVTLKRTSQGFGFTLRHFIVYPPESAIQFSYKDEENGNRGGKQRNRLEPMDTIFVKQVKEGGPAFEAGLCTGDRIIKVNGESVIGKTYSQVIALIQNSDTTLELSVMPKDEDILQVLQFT
# Test: holdup assay
# Parameters: key: below the threshold = too weak to quantify, mostly under pKd 3.1 to 4
# Conditions: plain residues with an end cap or a label only (N-terminal biotin on a linker: ado-ado)
row,Binder,pKd
1,B1,3.93
2,B2,below the threshold
3,B3,3.71
4,B4,below the threshold
5,B5,3.76
6,B6,below the threshold

# Molecular target: T9, RAPGEF6, Q8TEU7
# T9 sequence (Q8TEU7 525-625, limits assumed, looked up): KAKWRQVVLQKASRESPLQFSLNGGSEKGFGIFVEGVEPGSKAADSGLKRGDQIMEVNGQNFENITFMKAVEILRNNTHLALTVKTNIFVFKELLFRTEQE
# Test: holdup assay
# Parameters: key: below the threshold = too weak to quantify, mostly under pKd 3.1 to 4
# Conditions: plain residues with an end cap or a label only (N-terminal biotin on a linker: ado-ado)
row,Binder,pKd
1,B1,below the threshold
2,B2,below the threshold
3,B3,below the threshold
4,B4,below the threshold
5,B5,below the threshold
6,B6,below the threshold

# Molecular target: GRASP, Q7Z6J2
# Test: holdup assay
# Parameters: key: below the threshold = too weak to quantify, mostly under pKd 3.1 to 4
# Conditions: plain residues with an end cap or a label only (N-terminal biotin on a linker: ado-ado)
# GRASP, Q7Z6J2, sequence (Q7Z6J2 96-193): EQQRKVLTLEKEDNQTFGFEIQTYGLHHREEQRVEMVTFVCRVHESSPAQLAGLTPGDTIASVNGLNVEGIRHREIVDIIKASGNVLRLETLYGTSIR
row,Binder,pKd
1,B1,5.1
2,B2,3.89
3,B3,4.3
4,B4,below the threshold
5,B5,4.12
6,B6,below the threshold

# Molecular target: TJP1_3, Q07157
# Test: holdup assay
# Parameters: key: below the threshold = too weak to quantify, mostly under pKd 3.1 to 4
# Conditions: plain residues with an end cap or a label only (N-terminal biotin on a linker: ado-ado)
# TJP1_3, Q07157, sequence (Q07157 416-512): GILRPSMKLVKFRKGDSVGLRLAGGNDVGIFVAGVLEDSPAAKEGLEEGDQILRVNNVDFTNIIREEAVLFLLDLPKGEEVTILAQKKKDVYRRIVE
row,Binder,pKd
1,B1,below the threshold
2,B2,below the threshold
3,B3,3.89
4,B4,below the threshold
5,B5,below the threshold
6,B6,below the threshold

# Molecular target: NHERF4_4, Q86UT5
# Test: holdup assay
# Parameters: key: below the threshold = too weak to quantify, mostly under pKd 3.1 to 4
# Conditions: plain residues with an end cap or a label only (N-terminal biotin on a linker: ado-ado)
# NHERF4_4, Q86UT5, sequence (Q86UT5 464-550): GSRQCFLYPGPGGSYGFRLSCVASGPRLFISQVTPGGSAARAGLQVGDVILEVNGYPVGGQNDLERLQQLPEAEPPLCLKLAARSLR
row,Binder,pKd
1,B1,3.76
2,B2,below the threshold
3,B3,below the threshold
4,B4,3.9
5,B5,below the threshold
6,B6,below the threshold

# Molecular target: T10, APBA1_1, Q02410
# T10 sequence (Q02410 651-752, limits assumed, looked up): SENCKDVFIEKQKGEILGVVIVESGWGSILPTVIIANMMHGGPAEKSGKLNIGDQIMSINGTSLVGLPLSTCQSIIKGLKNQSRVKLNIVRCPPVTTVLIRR
# Test: holdup assay
# Parameters: key: below the threshold = too weak to quantify, mostly under pKd 3.1 to 4
# Conditions: plain residues with an end cap or a label only (N-terminal biotin on a linker: ado-ado)
row,Binder,pKd
1,B1,below the threshold
2,B2,below the threshold
3,B3,3.67
4,B4,below the threshold
5,B5,below the threshold
6,B6,below the threshold

# Molecular target: T11, HTRA4, P83105
# T11 sequence (P83105 378-476, limits assumed, looked up): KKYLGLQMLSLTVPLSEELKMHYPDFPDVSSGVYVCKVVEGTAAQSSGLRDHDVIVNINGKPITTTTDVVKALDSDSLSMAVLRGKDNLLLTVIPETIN
# Test: holdup assay
# Parameters: key: below the threshold = too weak to quantify, mostly under pKd 3.1 to 4
# Conditions: plain residues with an end cap or a label only (N-terminal biotin on a linker: ado-ado)
row,Binder,pKd
1,B1,4.76
2,B2,below the threshold
3,B3,4.9
4,B4,3.92
5,B5,below the threshold
6,B6,below the threshold

# Molecular target: T12, MPP6, Q9NZW5
# T12 sequence (Q9NZW5 125-219, limits assumed, looked up): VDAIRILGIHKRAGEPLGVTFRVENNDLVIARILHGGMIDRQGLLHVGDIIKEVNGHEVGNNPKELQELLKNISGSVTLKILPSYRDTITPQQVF
# Test: holdup assay
# Parameters: key: below the threshold = too weak to quantify, mostly under pKd 3.1 to 4
# Conditions: plain residues with an end cap or a label only (N-terminal biotin on a linker: ado-ado)
row,Binder,pKd
1,B1,below the threshold
2,B2,below the threshold
3,B3,below the threshold
4,B4,below the threshold
5,B5,below the threshold
6,B6,3.69

# Molecular target: Inadl_2, Q8NI35
# Test: holdup assay
# Parameters: key: below the threshold = too weak to quantify, mostly under pKd 3.1 to 4
# Conditions: plain residues with an end cap or a label only (N-terminal biotin on a linker: ado-ado)
# Inadl_2, Q8NI35, sequence (Q8NI35 238-335): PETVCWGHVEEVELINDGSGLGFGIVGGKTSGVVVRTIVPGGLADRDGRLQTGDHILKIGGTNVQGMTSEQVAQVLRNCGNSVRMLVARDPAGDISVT
row,Binder,pKd
1,B1,below the threshold
2,B2,below the threshold
3,B3,below the threshold
4,B4,below the threshold
5,B5,below the threshold
6,B6,below the threshold

# From paper PMC9482650, “Quantitative fragmentomics allow affinity mapping of interactomes” (Nature Communications, 2022)
